Molecular target: HA-DHX15, full-length recombinant protein (murine, UniProt O35286 1-795)
Assay: pull-down

Sequence of HA-DHX15, full-length recombinant protein (O35286 whole entry): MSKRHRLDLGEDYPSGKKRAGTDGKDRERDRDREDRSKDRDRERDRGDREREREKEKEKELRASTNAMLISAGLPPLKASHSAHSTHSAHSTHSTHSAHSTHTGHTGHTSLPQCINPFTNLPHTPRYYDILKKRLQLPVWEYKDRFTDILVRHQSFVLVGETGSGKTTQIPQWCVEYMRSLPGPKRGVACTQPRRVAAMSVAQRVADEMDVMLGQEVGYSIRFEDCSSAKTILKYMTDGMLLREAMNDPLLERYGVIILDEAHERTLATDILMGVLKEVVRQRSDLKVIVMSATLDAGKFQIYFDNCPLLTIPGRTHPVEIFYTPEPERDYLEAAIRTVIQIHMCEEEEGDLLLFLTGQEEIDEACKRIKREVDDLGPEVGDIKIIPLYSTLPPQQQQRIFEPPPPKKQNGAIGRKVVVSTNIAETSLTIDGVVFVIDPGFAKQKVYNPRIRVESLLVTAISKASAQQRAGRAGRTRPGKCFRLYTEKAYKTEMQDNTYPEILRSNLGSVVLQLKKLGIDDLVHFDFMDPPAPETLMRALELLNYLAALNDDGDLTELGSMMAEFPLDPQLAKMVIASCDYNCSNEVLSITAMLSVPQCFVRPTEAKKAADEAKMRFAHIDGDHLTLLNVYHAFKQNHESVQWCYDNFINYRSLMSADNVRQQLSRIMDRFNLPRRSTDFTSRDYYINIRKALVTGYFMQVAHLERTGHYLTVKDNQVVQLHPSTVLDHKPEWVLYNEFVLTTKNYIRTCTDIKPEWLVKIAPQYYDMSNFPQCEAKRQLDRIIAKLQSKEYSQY

binding result: binds
B1: Myc-MAVS, full-length recombinant protein (natural protein, murine, UniProt Q8VCF0 1-503, looked up)
chain: MTFAEDKTYKYIRDNHSKFCCVDVLEILPYLSCLTASDQDRLRASYRQIGNRDTLWGLFNNLQRRPGWVEVFIRALQICELPGLADQVTRVYQSYLPPGTSLRSLEPLQLPDFPAAVSGPSAFAPGHNIPDHGLRETPSCPKPVQDTQPPESPVENSEQLLQTNSGAVARMSGGSLIPSPNQQALSPQPSREHQEQEPELGGAHAANVASVPIATYGPVSPTVSFQPLPRTALRTNLLSGVTVSALSADTSLSSSSTGSAFAKGAGDQAKAATCFSTTLTNSVTTSSVPSPRLVPVKTMSSKLPLSSKSTAAMTSTVLTNTAPSKLPSNSVYAGTVPSRVPASVAKAPANTIPPERNSKQAKETPEGPATKVTTGGNQTGPNSSIRSLHSGPEMSKPGVLVSQLDEPFSACSVDLAISPSSSLVSEPNHGPEENEYSSFRIQVDESPSADLLGSPEPLATQQPQEEEEHCASSMPWAKWLGATSALLAVFLAVMLYRSRRLAQ
